From PMC6677171 (Life Science Alliance, 2019)

B1: Mis19 C-terminal peptide (residues 97–112) F102S (peptide, UniProt O42995 97-112, looked up)
peptide: LHNRVSLRRNVRAVKM
notes: the text ties the value to the F102S (eic1-1) mutant; also called F102 mutant; eic1-1 mutation
B2: Mis19C (Mis19 residues 52–112) (domain or fragment, S. pombe, UniProt O42995 52-112, looked up)
chain: PRVYETELLVLRFREFGVKDNHNHPINLHSLRSKSLIRAQGKKLDLHNRVFLRRNVRAVKM
notes: holds sites A, B and C; Cannot be expressed and purified without Mis16; also called Mis19^52-C; N-terminal truncation of Mis19; source: insect cells, co-expressed with Mis16
B3: Mis19 (S. pombe), full length (natural protein, UniProt O42995 1-112, looked up)
chain: MDLMPLEKARAIEIAFDNVFHNTKIPDNLQQFDAILKRLERRRFIPTENQKPRVYETELLVLRFREFGVKDNHNHPINLHSLRSKSLIRAQGKKLDLHNRVFLRRNVRAVKM
notes: Mis19 (also known as Eic1), S. pombe; only handled in complex; also called Eic1; source: insect cells (MultiBac), co-expressed with Mis16 and Mis18, co-purified
B4: Mis18 (S. pombe) (natural protein, UniProt Q9P802 1-194, looked up)
chain: MSQTETSHSGYIDFKKESQPSVFQCKKCFQIVGDSNAWVISHREYLSFTLSDAVENSVRVEDTFKRSDDGLCVYSELSCTRCNEVIGKVYNSTPIYLDDIRDMYTFSMDKLQAYQLGNKTVNPEGLTRYQVDLEMREDIIKLKSFCLSLYEKFELHDETLRSVKETISSLKKPKIEGKEGKKEKARTYSKRTRK
notes: Mis18, S. pombe, N-terminal YIPPEE domain and C-terminal coiled coil; 'Full-length' is said of the co-expressed complex; source: insect cells; co-expressed with Mis16 and Mis19 and co-purified, or purified alone for the pull-down
B5: Mis19^1–44 peptide (peptide, UniProt O42995 1-44, looked up)
peptide: MDLMPLEKARAIEIAFDNVFHNTKIPDNLQQFDAILKRLERRRF
notes: Mis19 (Eic1), S. pombe, residues 1–44 (motifs 1 and 2); also called wild-type peptide

Assays:
[1] = biological target: T1, Mis16 (S. pombe), full length, affinity tag removed (S. pombe, UniProt O94244 1-430); assay: ITC; iTC200, 30°C; 50 mM Tris pH 7.5, 100 mM NaCl, 4% glycerol, 0.5 TCEP; 26 μM protein in the cell, 260 μM peptide injected; details: both partners purified
T1 construct: Mis16, S. pombe, WD40-repeat protein, homologue of human RbAp46/48; codon-optimised gene; Used where the methods or text say the tag was removed (crystals, MALLS of the untagged complex) and, by the general purification protocol, for ITC and AUC; source: insect cells (baculovirus made in Sf21, expressed in Hi5), purified (Strep-Tactin, anion exchange, TEV cleavage, SEC); not shown: double …

[2] = biological target: T1, Mis16 (S. pombe), full length, affinity …; assay: ITC; competition: Mis16 preincubated with one peptide (H4α1 or Mis19α2) before titration with the second; apparent KD; details: both partners purified
[3] = biological target: T1, Mis16 (S. pombe), full length, affinity …; assay: SEC-MALS; 200 μg of purified Mis16–Mis19C complex on Superose 6 Increase 10/300 coupled to a Wyatt Dawn 8+ MALS system; details: both partners purified
[4] = biological target: T1, Mis16 (S. pombe), full length, affinity …; assay: AUC; sedimentation velocity of the purified co-expressed Mis16–Mis18–Mis19 complex at two concentrations; 150 mM NaCl, 25 mM Tris–HCl pH 8.0, 2 mM TCEP; 50,000 rpm, 4°C; c(s) in SEDFIT; details: both partners purified
[5] = biological target: the molecule itself; assay: as above
Mis18 (S. pombe) = biological target: B4; assay: SEC; competition: preformed Mis16–Mis18–Mis19 complex challenged with peptides from the Mis19 N terminus; dissociation seen as separate Mis16–19 and Mis18 peaks; details: both partners purified

LHNRVFLRRNVRAVKM (peptide, UniProt O42995 97-112, looked up, also called Mis19 site C peptide) [Mis19α2 peptide (Mis19 residues 97–112)]
Kd [1]: 8 nM | apparent KD with Mis16 preincubated with H4α1 [2]: 2500 nM

B1
Kd [1]: ~301 nM

B2
stoichiometry N [3]: 1

B3
binding result [4]: binds

B4
stoichiometry N [5]: 4

B5
binding result (Mis18 (S. pombe)): binds
